Data published in PMC10849712 (bioRxiv, 2024).

Key:
[1] = biological target: native IT4VAR18 PfEMP1 (CIDRα1.6) on P. falciparum-infected erythrocytes (Plasmodium falciparum, clone IT4 …, UniProt A3R6S2, strain); experiment: flow cytometry on cells
[2] = biological target: native HB3VAR03 PfEMP1 (CIDRα1.4) on P. falciparum-infected erythrocytes (Plasmodium falciparum HB3 (HB3VAR03), UniProt A0A0L7KL67, strain); experiment: flow cytometry on cells
[3] = biological target: native IT4VAR19 PfEMP1 (CIDRα1.1) on P. falciparum-infected erythrocytes (Plasmodium falciparum, clone IT4 …, UniProt A3R6S3, strain); experiment: flow cytometry on cells
[4] = biological target: T1, three-domain protein of IT4VAR22 PfEMP1 (NTSA-DBLα-CIDRα1.7-DBLβ) (Plasmodium falciparum IT4 (IT4VAR22), strain); experiment: cryo-EM structure
T1 chain: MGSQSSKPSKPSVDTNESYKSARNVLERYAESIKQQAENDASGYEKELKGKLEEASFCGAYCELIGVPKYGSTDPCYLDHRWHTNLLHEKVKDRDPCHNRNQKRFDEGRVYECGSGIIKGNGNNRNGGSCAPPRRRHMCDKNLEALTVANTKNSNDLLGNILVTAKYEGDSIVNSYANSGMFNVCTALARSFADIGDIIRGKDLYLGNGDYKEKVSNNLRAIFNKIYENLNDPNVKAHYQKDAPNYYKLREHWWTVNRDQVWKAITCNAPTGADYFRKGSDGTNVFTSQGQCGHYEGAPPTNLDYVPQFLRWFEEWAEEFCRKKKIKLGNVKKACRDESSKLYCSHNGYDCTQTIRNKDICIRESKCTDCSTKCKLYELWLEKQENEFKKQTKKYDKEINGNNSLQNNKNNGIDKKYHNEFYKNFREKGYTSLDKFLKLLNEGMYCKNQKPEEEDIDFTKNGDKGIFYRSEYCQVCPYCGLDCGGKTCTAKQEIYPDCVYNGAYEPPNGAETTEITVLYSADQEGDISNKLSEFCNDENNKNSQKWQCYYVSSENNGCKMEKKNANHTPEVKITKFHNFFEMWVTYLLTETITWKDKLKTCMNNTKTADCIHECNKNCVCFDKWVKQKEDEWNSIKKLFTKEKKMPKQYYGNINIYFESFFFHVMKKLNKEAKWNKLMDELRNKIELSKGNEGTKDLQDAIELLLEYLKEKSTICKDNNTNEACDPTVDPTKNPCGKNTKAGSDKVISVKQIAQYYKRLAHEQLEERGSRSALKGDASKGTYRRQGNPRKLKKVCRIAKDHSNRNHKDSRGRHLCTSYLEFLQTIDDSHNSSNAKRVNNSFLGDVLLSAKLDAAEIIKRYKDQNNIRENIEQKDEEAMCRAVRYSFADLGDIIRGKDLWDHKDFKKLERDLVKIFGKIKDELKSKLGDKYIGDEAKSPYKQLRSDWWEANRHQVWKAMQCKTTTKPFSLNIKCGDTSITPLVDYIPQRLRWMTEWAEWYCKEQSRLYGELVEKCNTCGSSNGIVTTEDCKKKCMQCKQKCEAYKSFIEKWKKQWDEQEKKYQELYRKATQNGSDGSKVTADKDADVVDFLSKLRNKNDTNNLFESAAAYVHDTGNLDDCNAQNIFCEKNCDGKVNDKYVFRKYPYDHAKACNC

[5] = biological target: T2, three-domain protein of HB3VAR03 PfEMP1 (NTS-DBLα-CIDRα1.4-DBLβ) (Plasmodium falciparum HB3 (HB3VAR03), strain); experiment: cryo-EM structure
T2 chain: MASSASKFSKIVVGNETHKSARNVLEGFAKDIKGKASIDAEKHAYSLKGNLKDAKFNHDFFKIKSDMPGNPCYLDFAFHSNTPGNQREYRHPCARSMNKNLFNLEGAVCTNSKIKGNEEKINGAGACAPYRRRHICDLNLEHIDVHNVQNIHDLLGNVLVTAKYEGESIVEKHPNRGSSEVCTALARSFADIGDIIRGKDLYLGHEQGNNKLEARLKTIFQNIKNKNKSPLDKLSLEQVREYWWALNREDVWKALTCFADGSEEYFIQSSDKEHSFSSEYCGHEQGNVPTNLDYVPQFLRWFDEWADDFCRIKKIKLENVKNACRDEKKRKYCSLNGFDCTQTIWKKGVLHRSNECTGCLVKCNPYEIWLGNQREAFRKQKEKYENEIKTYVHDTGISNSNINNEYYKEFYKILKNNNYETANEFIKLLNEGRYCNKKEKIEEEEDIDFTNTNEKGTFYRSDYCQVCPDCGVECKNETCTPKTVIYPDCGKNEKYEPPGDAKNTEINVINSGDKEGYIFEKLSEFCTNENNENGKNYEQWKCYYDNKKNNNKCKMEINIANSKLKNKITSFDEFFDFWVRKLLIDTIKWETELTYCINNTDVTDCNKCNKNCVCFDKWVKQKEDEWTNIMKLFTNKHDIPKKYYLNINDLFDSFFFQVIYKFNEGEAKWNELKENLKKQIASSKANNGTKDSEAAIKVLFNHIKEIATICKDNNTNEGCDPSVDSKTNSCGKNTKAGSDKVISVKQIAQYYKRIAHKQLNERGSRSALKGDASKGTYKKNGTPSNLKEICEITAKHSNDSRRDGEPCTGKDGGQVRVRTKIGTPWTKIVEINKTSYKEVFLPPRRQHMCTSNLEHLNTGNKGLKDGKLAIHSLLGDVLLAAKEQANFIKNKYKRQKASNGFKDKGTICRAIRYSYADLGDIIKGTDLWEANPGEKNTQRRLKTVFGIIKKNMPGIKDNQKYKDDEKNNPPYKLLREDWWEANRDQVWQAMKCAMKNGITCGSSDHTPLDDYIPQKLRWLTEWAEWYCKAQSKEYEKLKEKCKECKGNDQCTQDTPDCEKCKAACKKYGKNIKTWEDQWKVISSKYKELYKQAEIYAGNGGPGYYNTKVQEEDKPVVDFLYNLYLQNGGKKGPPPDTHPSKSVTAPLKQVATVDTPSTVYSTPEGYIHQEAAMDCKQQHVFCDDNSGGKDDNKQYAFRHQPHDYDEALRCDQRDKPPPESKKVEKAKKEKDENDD

[6] = biological target: T3, single CIDRα1.4 domain of HB3VAR03 PfEMP1 (crystallised with C7 Fab) (Plasmodium falciparum HB3 (HB3VAR03), strain); experiment: crystal structure
T3 chain: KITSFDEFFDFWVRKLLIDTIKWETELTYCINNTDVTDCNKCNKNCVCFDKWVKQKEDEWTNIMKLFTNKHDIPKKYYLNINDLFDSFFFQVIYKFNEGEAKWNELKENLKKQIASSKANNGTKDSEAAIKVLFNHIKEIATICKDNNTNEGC

B1: mAb C74, recombinant IgG1 (antibody, V domains shown)
VH: EVQLVQSGGALVRPGGSLRLSCAASGFDFSDFEMNWVRQAPGKGLEWISYISKISAASFYADSVEGRFTISRDNTKNLLWLEMTSLRDEDTAVYYCARDLPGYLERVFDLWGQGTLVSVSS
VL: EIVLTQSPATLSLSPGEDATLSCRASQSVGSALAWYQHRPGQSPRLLIYDASTRATGIPARFSGSGSGTEFTLTVSSLTSEDFAVYYCQEYKNSVPPTWTFGQGTKVEIK
Q: Does B1 bind [1]?
A: binds

Q: Does B1 bind [2]?
A: binds

Q: Does B1 bind [3]?
A: no binding (tested: 100 μg/mL)

B2: C74 Fab (Fab, V domains shown)
VH: B1 VH
VL: B1 VL
Q: Does B2 bind [4]?
A: binds

B3: mAb C7, recombinant IgG1 (antibody, V domains shown)
VH: EVQLVESGGGLAQPGGSLRLSCAASGFTFRDHGMTWVRQVSGKGLEWLSYITAGSKMSYYSDSVRGRFTISRDNAKNSLYLQMNGLTDEDSAIYYCVKGGGNCPSDTCYPSGYFGLDVWGQGTTVTVSS
VL: QSELTQPPSMSVSPGQTAMITCSMNKYSYISWYQQRPGQSPALVIYQDTRRPSGIPERFSGSNSENTAILTITGTRDLDEADYFCQGWDSNVKAVLFGGGTKLTVL
Q: What does the source list for B3?
A: binding result [1]: binds; binding result [2]: binds; binding result [3]: no binding (tested: 100 μg/mL)

B4: C7 Fab (Fab, V domains shown)
VH: B3 VH
VL: B3 VL
Q: Does B4 bind [4]?
A: binds

Q: Does B4 bind [5]?
A: binds

Q: Does B4 bind [6]?
A: binds
